Patent publication US20240400638A1, “COMBINATION OF RELAXIN AND VASOPRESSIN ANALOGUES FOR TREATMENT OF RENAL DISORDERS OR CONDITIONS” (River 2 Renal Corp., priority 2021, published 2024)
Numbered stars: 1 amine (or outer) side, 2 acyl side, 3 side chain; on linkers, the order of the positions; unused ones are H or OH. Square brackets hold non-standard residues; d marks the D form. Side chains are listed from the residue outwards. * marks the point of attachment. TTDS = 4-[3-[2-[2-(3-aminopropoxy)ethoxy]ethoxy]propylamino]-4-oxo-butanoyl; Trp(5-F) = N[C@@H](Cc1c[nH]c2ccc(F)cc12)C(=O)O; Phe(4-F) = N[C@@H](Cc1ccc(F)cc1)C(=O)O; γGlu = O=C(O)[C@H](CCC(=O)[*:2])N[*:1]; Palmitoyl = CCCCCCCCCCCCCCCC(=O)*; αMeF = C[C@](N)(Cc1ccccc1)C(=O)O; Myristoyl = CCCCCCCCCCCCCC(=O)*; Cit = NC(=O)NCCC[C@H](N)C(=O)O; αMeK = C[C@](N)(CCCCN)C(=O)O; hLys = NCCCCC[C@H](N)C(=O)O; AEEA = NCCOCCOCC(=O)O; Aib = CC(C)(N)C(=O)O

T1: human RXFP1 (human, UniProt Q9HBX9 1-757)
T1 sequence (looked up): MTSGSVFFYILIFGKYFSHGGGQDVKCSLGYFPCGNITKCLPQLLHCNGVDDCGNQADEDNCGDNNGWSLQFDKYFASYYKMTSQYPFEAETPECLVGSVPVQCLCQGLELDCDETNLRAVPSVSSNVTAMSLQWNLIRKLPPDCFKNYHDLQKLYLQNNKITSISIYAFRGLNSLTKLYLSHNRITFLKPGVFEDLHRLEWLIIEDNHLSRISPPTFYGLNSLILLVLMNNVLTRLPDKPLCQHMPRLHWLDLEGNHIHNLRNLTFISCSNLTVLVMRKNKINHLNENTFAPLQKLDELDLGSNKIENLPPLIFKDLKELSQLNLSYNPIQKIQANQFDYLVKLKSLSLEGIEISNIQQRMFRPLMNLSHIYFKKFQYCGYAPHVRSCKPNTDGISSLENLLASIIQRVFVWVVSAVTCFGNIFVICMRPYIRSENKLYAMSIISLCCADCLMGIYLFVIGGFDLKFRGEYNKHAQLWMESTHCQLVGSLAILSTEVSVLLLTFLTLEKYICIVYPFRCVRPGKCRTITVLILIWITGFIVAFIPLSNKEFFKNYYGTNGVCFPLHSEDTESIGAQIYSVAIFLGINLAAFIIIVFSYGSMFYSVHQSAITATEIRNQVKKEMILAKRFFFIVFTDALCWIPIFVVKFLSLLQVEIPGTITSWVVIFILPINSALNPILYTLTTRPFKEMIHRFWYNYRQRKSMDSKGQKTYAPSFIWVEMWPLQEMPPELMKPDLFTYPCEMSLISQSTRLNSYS


What follows are binders tested against T1, human RXFP1 (assay: cell-based or functional assay).

Binder | EC50 (nM), OVCAR 5 cells (cAMP) [nM] | EMax, OVCAR 5 cells (cAMP) [%]
Ac-LEGREKVRAK(Ac)I[Aib][Aib]EGK([TTDS-TTDS-TTDS-γGlu-γGlu-γGlu-Palmitoyl])STF[dS]KRAK(Ac)-NH2 [Relaxin peptide analogue of SEQ ID NO: 14] | 3.2 | 90
Ac-LEGREKVR[Aib]K(Ac)I[Aib][Aib]EGK([TTDS-TTDS-TTDS-γGlu-γGlu-γGlu-Palmitoyl])STWS[Aib]RAK(Ac)-NH2 [Relaxin peptide analogue of SEQ ID NO: 82] | 0.54 | 95
Ac-LEGREKVRAK(Ac)I[Aib]IEGK([TTDS-TTDS-TTDS-γGlu-γGlu-γGlu-Palmitoyl])STFS[αMeK]RAK(Ac)-NH2 [Relaxin peptide analogue of SEQ ID NO: 84] | 0.1 | 95
Ac-LEGREKVRAK(Ac)I[Aib][Aib]EGK([TTDS-TTDS-TTDS-γGlu-γGlu-γGlu-Palmitoyl])SKWS[Aib]RKK(Ac)-NH2 [Relaxin peptide analogue of SEQ ID NO: 83] | 0.25 | 94
Ac-LEGREKVRAK(Ac)I[Aib][Aib]EGK([TTDS-TTDS-γGlu-γGlu-Palmitoyl])STFS[αMeK]RAK(Ac)-NH2 [Relaxin peptide analogue of SEQ ID NO: 9] | 0.7 | 93
Ac-LEGREKVRAK(Ac)I[Aib][Aib]EGK([TTDS-TTDS-TTDS-γGlu-γGlu-γGlu-Palmitoyl])STFSKRAK(Ac)-NH2 [Relaxin peptide analogue of SEQ ID NO: 13] | 2.12 | 91
Ac-LEGREKVRAK(Ac)I[Aib][Aib]EGK([TTDS-TTDS-γGlu-γGlu-γGlu-Palmitoyl])STWS[dK]RAK(Ac)-NH2 [Relaxin peptide analogue of SEQ ID NO: 17] | 4.6 | 91
Ac-LEGREKVRAK(Ac)I[Aib][Aib]EGK([TTDS-TTDS-TTDS-γGlu-γGlu-γGlu-Palmitoyl])STF[Aib]KRAK(Ac)-NH2 [Relaxin peptide analogue of SEQ ID NO: 15] | 2.1 | 85
Ac-LEGREKVRA[Cit]I[Aib][Aib]EGK([TTDS-TTDS-TTDS-γGlu-γGlu-γGlu-Palmitoyl])STFS[αMeK]RAK(Ac)-NH2 [Relaxin peptide analogue of SEQ ID NO: 12] | 0.93 | 90
Ac-LEGREKVRAK(Ac)I[Aib][Aib]EGK([AEEA-AEEA-AEEA-AEEA-γGlu-γGlu-γGlu-Palmitoyl])STFS[αMeK]RAK(Ac)-NH2 (SMILES CCCCCCCCCCCCCCCC(=O)N[C@@H](CCC(=O)N[C@@H](CCC(=O)N[C@@H](CCC(=O)NCCOCCOCC(=O)NCCOCCOCC(=O)NCCOCCOCC(=O)NCCOCCOCC(=O)NCCCC[C@H](NC(=O)CNC(=O)[C@H](CCC(=O)O)NC(=O)C(C)(C)NC(=O)C(C)(C)NC(=O)[C@@H](NC(=O)[C@H](CCCCNC(C)=O)NC(=O)[C@H](C)NC(=O)[C@H](CCCNC(=N)N)NC(=O)[C@@H](NC(=O)[C@H](CCCCN)NC(=O)[C@H](CCC(=O)O)NC(=O)[C@H](CCCNC(=N)N)NC(=O)CNC(=O)[C@H](CCC(=O)O)NC(=O)[C@H](CC(C)C)NC(C)=O)C(C)C)[C@@H](C)CC)C(=O)N[C@@H](CO)C(=O)N[C@H](C(=O)N[C@@H](Cc1ccccc1)C(=O)N[C@@H](CO)C(=O)N[C@@](C)(CCCCN)C(=O)N[C@@H](CCCNC(=N)N)C(=O)N[C@@H](C)C(=O)N[C@@H](CCCCNC(C)=O)C(N)=O)[C@@H](C)O)C(=O)O)C(=O)O)C(=O)O) [Relaxin peptide analogue of SEQ ID NO: 8] | 1.86 | 92
Ac-LEGREKVRAK(Ac)I[Aib][Aib]EGK([TTDS-TTDS-γGlu-γGlu-γGlu-Palmitoyl])STFS[dK]RAK(Ac)-NH2 [Relaxin peptide analogue of SEQ ID NO: 16] | 6.8 | 88
Ac-LEGREKVRAK(Ac)I[Aib][Aib]EGK([TTDS-TTDS-TTDS-γGlu-γGlu-γGlu-Palmitoyl])STWS[αMeK]RAK(Ac)-NH2 [Relaxin peptide analogue of SEQ ID NO: 11] | 0.83 | 93
Ac-LEGRERVR[Aib]K(Ac)I[Aib][Aib]EGK([TTDS-TTDS-TTDS-γGlu-γGlu-γGlu-Palmitoyl])STWS[Aib]RRK(Ac)-NH2 [Relaxin peptide analogue of SEQ ID NO: 85] | 0.3 | 92
Ac-LEGREKVRAK(Ac)I[Aib][Aib]EGK([TTDS-TTDS-γGlu-γGlu-γGlu-γGlu-Palmitoyl])STFS[αMeK]RAK(Ac)-NH2 [Relaxin peptide analogue of SEQ ID NO: 10] | 0.79 | 95
Ac-LEGREKVRAK(Ac)I[Aib][Aib]EGK([TTDS-TTDS-TTDS-γGlu-γGlu-γGlu-Palmitoyl])STFS[Aib]RAK(Ac)-NH2 [Relaxin peptide analogue of SEQ ID NO: 2] | 2.4 | 99

Results, then the binder that gave them:

EC50 (nM), OVCAR 5 cells (cAMP) [nM] | EMax, OVCAR 5 cells (cAMP) [%] | Binder
1.74 | 88 | Ac-LEGREKVRAK(Ac)I[Aib][Aib]EGK([TTDS-TTDS-TTDS-γGlu-γGlu-γGlu-Palmitoyl])STFVRRAK(Ac)-NH2 [Relaxin peptide analogue of SEQ ID NO: 94]
0.1 | 99 | Ac-LEGRERVRAK(Ac)I[Aib][Aib]EGK([TTDS-TTDS-TTDS-γGlu-γGlu-γGlu-Palmitoyl])ST[Trp(5-F)]S[Aib]RRK(Ac)-NH2 [Relaxin peptide analogue of SEQ ID NO: 92]
0.1 | 97 | Ac-LEGREKVRAK(Ac)I[Aib][Aib]EGK([TTDS-TTDS-TTDS-γGlu-γGlu-γGlu-Palmitoyl])ST[αMeF]SRRAK(Ac)-NH2 [Relaxin peptide analogue of SEQ ID NO: 89]
0.14 | 97 | Ac-LEGREKVRAK(Ac)IA[Aib]EGK([TTDS-TTDS-TTDS-γGlu-γGlu-γGlu-Palmitoyl])STFS[αMeK]RAK(Ac)-NH2 [Relaxin peptide analogue of SEQ ID NO: 90]
0.17 | 96 | Ac-LEGREKVRAK(Ac)I[Aib][Aib]EGK([TTDS-TTDS-TTDS-γGlu-γGlu-γGlu-Palmitoyl])STFS[hLys]RAK(Ac)-NH2 [Relaxin peptide analogue of SEQ ID NO: 88]
1.8 | 91 | Ac-LEGREKVRAK(Ac)I[Aib][Aib]EGK([TTDS-TTDS-TTDS-γGlu-γGlu-γGlu-Myristoyl])STFS[αMeK]RAK(Ac)-NH2 [Relaxin peptide analogue of SEQ ID NO: 95]
0.1 | 96 | Ac-LEGREKVRAK(Ac)I[Aib][Aib]EGK([TTDS-TTDS-TTDS-γGlu-γGlu-γGlu-Palmitoyl])STFSRRAK(Ac)-NH2 [Relaxin peptide analogue of SEQ ID NO: 87]
0.77 | 86 | Ac-LEGREKVRAK(Ac)I[Aib][Aib]EGK([TTDS-TTDS-TTDS-γGlu-γGlu-γGlu-Palmitoyl])STFTRRAK(Ac)-NH2 [Relaxin peptide analogue of SEQ ID NO: 93]
0.09 | 97 | Ac-LEGRERVRAK(Ac)I[Aib][Aib]EGK([TTDS-TTDS-TTDS-γGlu-γGlu-γGlu-Palmitoyl])ST[Phe(4-F)]S[Aib]RRK(Ac)-NH2 [Relaxin peptide analogue of SEQ ID NO: 91]
0.3 | 95 | Ac-[Aib]EGREKVRAK(Ac)I[Aib]IEGK([TTDS-TTDS-TTDS-γGlu-γGlu-γGlu-Palmitoyl])STFS[αMeK]RAK(Ac)-NH2 [Relaxin peptide analogue of SEQ ID NO: 86]
0.29 | 98 | Ac-LEGREKVRAK(Ac)I[Aib][Aib]EGK([TTDS-TTDS-TTDS-γGlu-γGlu-γGlu-γGlu-Myristoyl])STFS[αMeK]RAK-NH2 [Relaxin peptide analogue of SEQ ID NO: 97]
0.88 | 92 | Ac-LEGREKVRAK(Ac)I[Aib][Aib]EGK([TTDS-TTDS-TTDS-γGlu-γGlu-γGlu-Myristoyl])STFS[αMeK]RAK-NH2 [Relaxin peptide analogue of SEQ ID NO: 96]
